# Values of other authors as cited in article PMC7801465.
# Target: SARS-CoV-2 spike (SARS-CoV-2) (UniProt P0DTC2)
substance,measurement,value
Basigin (from UniProt P35613),Kd,185 nM
